Measurements from paper doi:10.1101/546648.

Target: OrnVc (oligoribonuclease) (Vibrio cholerae O1 El Tor?) (UniProt Q9KV17)
Experiment: DRaCALA
Conditions: 5' phosphate

pGpG (GG, 2-mer)
Kd: 90 nM
